The values below come from patent publication US20230218777A1 (Stanford University, published 2023).

This experiment has as its target SARS-CoV-2 Spike protein (SARS-CoV-2, UniProt P0DTC2 14-1273). Put plainly: cell-based or functional assay.

B1: affinity-matured nanobody R13 (VHH)
VHH: QVQLQESGGGLVQAGGSLRLSCAASGTIFQVSSMGWYRQAPGKERKFVATIADGSSTNYAGSVKGRFTISRDNAKNTVYLQMNSLKPEDTAVYYCAALGQVSEYNSASYEWTYPYWGQGTQVTVSS
With B1, the “neutralizing effect calculated by IC50 (SARS-CoV-2 pseudovirus on hACE2-293T cells), against parental R13” value was about 100 times.

B2: affinity-matured nanobody R18 (VHH)
VHH: QVQLQESGGGLVQAGGSLRLSCAASGSISRDYDMGWYRQAPGKERKFVAGINVGGTTNYAGSVKGRFTISRDNAKNTVYLQMNSLKPEDTAVYYCAVHAVYTDGWEDGYLYPLPYWGQGTQVTVSS
B2: the “neutralizing effect calculated by IC50 (SARS-CoV-2 pseudovirus on hACE2-293T cells), against parental R18” value was about 100 times.
